Numbering of substitutions follows the chain as printed.

The labels stand for the following.
T1: CEA (carcinoembryonic antigen, Biodesign Intl., Saco, Me.) (UniProt P06731 35-685)
T1 construct: also called immobilized CEA
T1 sequence: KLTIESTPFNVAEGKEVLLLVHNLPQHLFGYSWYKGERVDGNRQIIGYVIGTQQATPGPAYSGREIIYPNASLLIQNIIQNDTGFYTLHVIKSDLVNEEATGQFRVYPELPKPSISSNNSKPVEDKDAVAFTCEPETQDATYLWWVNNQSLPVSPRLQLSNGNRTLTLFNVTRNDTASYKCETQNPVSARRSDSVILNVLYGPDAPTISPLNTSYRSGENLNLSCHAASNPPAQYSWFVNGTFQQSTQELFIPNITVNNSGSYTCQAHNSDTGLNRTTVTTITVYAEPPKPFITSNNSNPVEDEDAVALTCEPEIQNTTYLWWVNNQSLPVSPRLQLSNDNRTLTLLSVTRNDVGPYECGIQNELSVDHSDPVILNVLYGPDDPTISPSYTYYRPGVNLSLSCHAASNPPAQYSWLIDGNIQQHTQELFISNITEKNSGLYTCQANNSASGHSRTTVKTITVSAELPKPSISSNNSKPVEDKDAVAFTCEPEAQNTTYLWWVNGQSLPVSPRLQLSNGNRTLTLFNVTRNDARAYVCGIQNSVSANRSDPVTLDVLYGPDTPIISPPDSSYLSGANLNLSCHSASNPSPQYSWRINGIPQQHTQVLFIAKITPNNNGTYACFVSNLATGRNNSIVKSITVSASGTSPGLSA

B1: NA08.3 (scFv)
chain: QVQLQQSGAELVKSGGSVKLSCTASGFNIKDSYMHWVRQGPEQGLEWIGWIDPENGDTEYAPKFQGKATFTTDTSSNTAYLQLSSLTSEDTAVYYCNEGTPTGPYYFDYWGQGTTVTVSSGGGGSGGGGSGGGGSENVLTQSPAIVSASPGEKVTITCSASSSVSYMHWFQQKPGTSPKLVIYSTSNLADGVPARFSGSGSGTSYSLTISRMEAEDAATYYCQQRDSYPLTFGAGTKLELKRAATPVSEKQLAEVVANTITPLMKAQSVPGMAVAVIYQGKPHYYTFGKADIAANKPVTPQTLFELGSISKTFTGVLGGDAIARGEISLDDAVTRYWPQLTGKQWQGIRMLDLATYTAGGLPLQVPDEVTDNASLLRFYQNWQPQWKPGTTRLYANASIGLFGALAVKPSGMPYEQAMTTRVLKPLKLDHTWINVPKAEEAHYAWGYRDGKAVRVSPGMLDAQAYGVKTNVQDMANWVMANMAPENVADASLKQGIALAQSRYWRIGSMYQGLGWEMLNWPVEANTVVETSFGNVALAPLPVAEVNPPAPPVKASWVHKTGSTGGFGSYVAFIPEKQIGIVMLANTSYPNPARVEAAYHILEALQ
B2: NA08.14 (scFv)
chain: B1 chain with P101D, D190S, D226S
B3: NA08.17 (scFv)
chain: B1 chain with W50H, S184D, D190S, D226S
B4: NA08.45 (scFv)
chain: B1 chain with T102D, Y166A, D190S, D226S
B5: NA08.12 (scFv)
chain: B1 chain with T102H, Y166A, D190S
B6: NA08.9 (scFv)
chain: B1 chain with Y166A, D190S, D226S
B7: NA08.64 (scFv)
chain: B1 chain with Q65D, Y166A, D190S, D226S
B8: NA08.1 (scFv)
chain: B1 chain with W50H, Y166A, D190S, D226S
B9: NA08.4 (scFv)
chain: B1 chain with T100D, D226S
B10: NA08.13 (scFv)
chain: B1 chain with Q65H, S184D, D190S
B11: NA08.24 (scFv)
chain: B1 chain with T102D, D190S
B12: NA08.51 (scFv)
chain: B1 chain with P104H, Y166A, D190S, D226S
B13: CAB1.7 (clone pSW155.17) (scFv)
chain: QVQLQQSGAELVKSGGSVKLSCTASGFNIKDSYMHWVRQGPEQGLEWIGWIDPENGDTEYAPKFQGKATFTTDTSSNTAYLQLSSLTSEDTAVYYCNEGLPLGAIYNDYWGQGTTVTVSSGGGGSGGGGSGGGGSENVLTQSPAIVSASPGEKVTITCSASSAVYAMHWFQQKPGTSPKLVIYDTSNLASGVPARFSGSGSGTSYSLTISRMEAEDAATYYCQQRDSYPLTFGAGTKLELDRAATPVSEKQLAEVVANTITPLMKAQSVPGMAVAVIYQGKPHYYTFGKADIAANKPVTPQTLFELGSISKTFTGVLGGDAIARGEISLDDAVTRYWPQLTGKQWQGIRMLDLATYTAGGLPLQVPDEVTDNASLLRFYQNWQPQWKPGTTRLYANASIGLFGALAVKPSGMPYEQAMTTRVLKPLKLDHTWINVPKAEEAHYAWGYRDGKAVRVSPGMLDAQAYGVKTNVQDMANWVMANMAPENVADASLKQGIALAQSRYWRIGSMYQGLGWEMLNWPVEANTVVETSFGNVALAPLPVAEVNPPAPPVKASWVHKTGSTGGFGSYVAFIPEKQIGIVMLANTSYPNPARVEAAYHILEALQ
notes: scFv-BLA fusion
B14: NA05.6 (CAB1.1) (scFv)
chain: B1 chain with Q3K, V37L, V146M, D190S, D226S
notes: also called pNA05.6
B15: NA05.15 (scFv)
chain: B1 chain with Q3K, K13R, G16T, V37L, F170Y, V181W, D190S, A194D, D226S
B16: NA05.12 (scFv)
chain: B1 chain with K13R, S14P, G16T, V181W, D190S, D226S
B17: NA05.9 (scFv)
chain: B1 chain with K13R, S14P, G16T, E42G, E136Q, D190S, D226S, A234G
B18: NA05.8 (scFv)
chain: B1 chain with Q3K, G16T, V37L, V146M, F170Y, V181W, D190S, D226S, A234G
B19: NA05.10 (scFv)
chain: B1 chain with K13R, G16T, V146M, F170Y, D190S, D226S
B20: NA06.10 (scFv)
chain: B1 chain with Q3K, D190S, A194D, D226S
B21: NA06.11 (scFv)
chain: B1 chain with V146M, D190S, A194D, D226S
B22: NA06.12 (scFv)
chain: B1 chain with Q3K, E136Q, V146M, D190S, D226S
B23: NA06.2 (scFv)
chain: B1 chain with Q3K, E42G, V146M, D190S, A194D, D226S
B24: NA06.4 (scFv)
chain: B1 chain with Q3K, D190S, D226S
B25: clone pSW134.1 (scFv)
chain: B1 chain with T100L, F107N, S184D, D190S
B26: clone pSW129.5 (scFv)
chain: B1 chain with T100L, T102L, S184D, D190S
B27: NA08.15 (CAB1.4) (scFv)
chain: B1 chain with S184D, D190S

One assay concerns the target T1, CEA (carcinoembryonic antigen, …). The experiment in a line: CEA-coated plate at pH 6.5 and pH 7.4, bound BLA activity.
For B1, the binding result is listed as “binds”.
Same read-out and setting: to B2 belongs “binds”; to B3, “binds”; to B4, “binds”.
As to B5, the binding result is given as “binds”.
Still for that read-out and setting: under B6 stands “binds”.
For B7, the binding result is recorded as “binds”.
As to B8, the binding result is “binds”.
In the case of B9, the binding result is listed as “binds”.
In the case of B10, the binding result was “binds”.
On the same count and under the same terms, to B11 belongs “binds”.
For B12, the binding result was “binds”.

For another assay the target is unchanged. Briefly: screen of library SW155.
With B13, the binding result is recorded as “binds”.

A further assay has the same target. The experiment in a line: CEA-coated plate, bound BLA activity (nitrocefin), cell lysate.
B14: the binding result was “binds”.
In the case of B15, the binding result is on record as “binds”.
The same measure, in the same setting: to B16 belongs “binds”.
Same read-out and setting: under B17 stands “binds”.
On the same count and under the same terms, under B18 stands “binds”; under B19, “binds”.

Another assay shares this target. Briefly: CEA-coated plate after thermolysin treatment of the lysate, bound BLA activity.
Take B20: the binding result was “binds”.
The same measure, in the same setting: to B21 belongs “binds”; to B22, “binds”.
On to B23, for which the binding result was “binds”.
For B24, the binding result is “binds”.

Another assay shares this target. The experiment in a line: screen of H3 site saturation mini-libraries for improved affinity.
With B25, the binding result was “binds”.
B26: the binding result is reported as “binds”.

Another assay shares this target. Briefly: CEA-coated plate, binding curves at pH 6.5 and pH 7.4, bound BLA activity.
Consider B27, for which the binding result is listed as “binds”.

(Values after patent US20110160440A1 (GENENCOR INTERNATIONAL, published 2011).)
